B1: TPR t1 (parent)
chain: GACCAAUCUGCCCUCAGAGCUCGAGAACAUCUUCGGAUGCAGAGGAGGCAGGCUUCGGUGGCGCGAUAGCGCCAACGUCCUCAACCUCCAAUGCAUCCCACCACAUGAUGAUGCCUGAAGAGCCUUGGUUUUUUG

Variants of: B1
Experiment: polymerase ribozyme fitness, log enrichment relative to wild type (log ratio); higher = more active; in vitro selection for triplet polymerase activity
Procedure, shortened: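 To select mutant libraries of each subunit of a heterodimeric triplet polymerase ribozyme, built by PCR and transcribed, each was annealed with a biotinylated primer, partner subunit and triplets, then incubated frozen at −7 °C. Extended constructs were gel-excised, captured on streptavidin beads and amplified by RT-PCR, in one round carried out in triplicate. Illumina sequencing of input and output libraries kept genotypes with ≥10 input reads and ≥1 read per output. Fitness is the base-2 logarithm of genotype enrichment relative to wild-type enrichment, from inverse-variance-weighted replicate averages.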

Variant | polymerase ribozyme fitness (log ratio)
C3A C20U U38A G61A C82A G110A G127A | -6.34
C3U C8A U54A G69C | -1.46
C3G A119G | -0.446
A2U G10C G71U A121C | -1.06
C3U C11G U21A U129A | -0.924
C3U A5C C15A G69C U109A U116A | -5.71
C3A A5U G60C A91U G127A | -2.45
A2U C72U C101G C124A | -2.06
C3G U7A C40A G44A A111U | -5.51
C3A C56A G135U | -2.75
C3U A68G | -3.05
C3G A5U G60C A90G | -1.39
C3U C8U A105G | -2.67
C3G U78A U96A C123G U131C | -0.54
A2U G71A | -2.72
A2U U129A | 0.107
C3A U9A G61C | -2.34
C3G C73A C76U A90G G120U G127U | -3.52
A2U U106A | -1.89
A2U U106G | -4.83
A2U U7G C22A U33G C72U G120C | -7

Variant | polymerase ribozyme fitness (log ratio)
A2U G36C A74C | -3.04
C3U C8A G57U G77U C79U A83C C89U C101G | -3.64
A2U G10U G45A G48A C102U C114U G120C C123U | -4.53
C3A A26U | -4.19
C3A U9G C98U | -1.51
C3G A111C | -1.69
A2U C88A A121U | -0.332
A2U C49U G113C | -5.26
C3G U9A C72A G107U | -6.54
C3U A100C G135C | -2.44
A2U G60U C82G | -3.31
A2U C12G G63A | -3.14
A2U G51U U59G A84C | -4.9
C3A G57C A90U C114A U132C | -3.92
C3U A29G A46U G61A A66U A83G C86A C101U U132A | -4.12
C3A U14G G69U C70U U106C | -4.86
A2U G57C | -2.3
C3G G71U | -2.64
C3U C11U A50U C64U U81G C102U G128A | -3.47
C3A A27C G45A C53A C123U | -4.25
C3G C4A C40U C53A C70U C86A C98U U112A | -5.43

Variant | polymerase ribozyme fitness (log ratio)
A2U G61U | -1.84
A2U G61A | -2.17
C3G G17U A50U U54A A74G A121C G135U | -4.33
C3G C8A G113C G127C | -2.92
A2U U106A G128U U131C | -1.21
C3G U7A C12U C62A G117U | -6.14
A2U C70U C88A | -3.44
C3U C11U U54G | -1.05
C3G C13U G63U A111C | -2.54
C3A G61A C79G U112A G135C | -2.83
C3A C73G | -1.48
C3G C4G U7C C53A C123U | 1.4
C3G G61U C104A | -3.47
C3G U129C | -1.37
C3U A46U C73A U87A | -0.663
C3U A37C G122A | -2.49
C3G G19A A29U G48C C72G U106A G110C C114G | -7.4
C3A C15A A41U G58C G71U U92G C114G | -5.03
C3A C64G C76U G110C | -6.8
C3A C72U | -1.75
C3A C88A | -2.21

Variant | polymerase ribozyme fitness (log ratio)
A2U G19A | -4.15
C3G C82U | -1.74
C3G C62A C82G | -3.81
C3A G48A A84G | -1.29
C3A C123U | -1.48
C3A C123A | -1.18
C3A C123G | 0.176
C3A C8G A74U A95C G117A G128U | -0.293
C3U C11U G39C G71A A119G | -0.917
C3G C40G | -1.82
C3A C4G U7A U21A C40U G47U C114U | -3.96
C3A C11G C56G C82U C115U G117A | -1.87
A2U C40U C115A A121U | 0.0194
C3A C13U C73U | -1.44
C3A C15G C72G G117C A119U | -0.76
C3A C56U G61U G113U G120U U126C | -5.49
A2U C13U A50G U112C | 0.516
A2U U9G A50G C62U C98A G120C | -5.94
A2U C40A G61U C73A U92A C104U | -5.16
C3A C12U A29G U87C G110A A118U U131G | -0.49
C3G G57A G60A A111C | -2.99

Source: the RNAGym collection of RNA variant scans (doi:10.1073/pnas.2313332121)
